US9395368B2, “Methods, agents and peptides for inducing an immune response to matrix metalloproteinase-2 expressing tumors” (New York University, priority 2010, dated 2016)

Key:
[1] = test system: Cord blood-derived CD4+/CD25- cells; experiment: Priming of naive CD4+ T cells to Melan-A/MART-1 or NY-ESO-1 with DCs pre-incubated with MMP-2; assay type: cell-based, human
Protocol: (A) Cord blood-derived CD4^+/CD25^− cells were stimulated with autologous poly(I:C)-matured DCs pulsed with overlapping peptides spanning either Melan-A/MART-1 or NY-ESO-1. Prior to poly(I:C) addition, DCs were incubated with or without MMP-2 (active or heat-inactivated) for 1 h. MMP-2 enzymatic activity was controlled (FIG. 13C-D). After 15 days, CD4^+ T cells were stimulated with the Melan-A/MART-1 or NY-ESO-1 peptide pools (2 μM) for 6 h before intracellular staining of cytokines. Percentages of antigen-specific CD4^+ T cells, secreting indicated cytokines, are represented for all donors. (B) Contour plots showing percentages of cytokine-producing CD4^+ T cells are shown for representative donor CB45 primed to Melan-A/MART-1. Percentage of secreting cells upon peptide stimulation was considered specific/positive when it exceeded by more than twofold the background (cytokine-secreting cells in the absence of stimulation) and had more than 0.5% of responding cells (after background subtraction) for at least one cytokine. For each cytokine, 2 paired t-tests were used to compare priming in the presence of active MMP-2 to either priming in the absence of active MMP-2 or with HI MMP-2. The Bonferroni adjustment was used for multiple comparisons. P values≦0.025 (*) were considered statistically significant using a Bonferroni correction for 2 comparisons.
T Cell culture, stimulation and priming. Peripheral blood mononuclear cells (PBMCs) were purified from healthy donor-(HD) or cord blood donor-(CB) derived buffy coats (New York Blood Center) by Ficoll-Paque Plus (GE Healthcare) centrifugation. CD4^+/CD25^− cells were enriched (>90%) by magnetic cell sorting (Miltenyi Biotec) and primed/stimulated for 12-15 days either with irradiated (35Gy) autologous CD4^− cells or with autologous mature DCs in IMDM (GIBCO) supplemented with 1 mM HEPES (Life Technologies), 2 mM L-glutamine (Sigma), streptomycin (100 UI/mL)/penicillin (100 μg/mL) (Sigma) and 5% heat inactivated pooled human serum (PHS; Valley Biomedical) in the presence of rhIL-2 (10 UI/mL) and IL7 (5 ng/mL) (R&D Systems). Antigen presenting cells (CD4^− cells or DCs) were loaded either with peptides (2 μM) or with the MMP-2 protein (10 μg/mL) for 2 and 5 h, respectively. DCs were matured using the TLR3 agonist poly(I:C) at 5 μg/mL/10^6 DCs (Amersham). To generate T cell clones, we originally relied on our published methodology (Godefroy et al., 2006; Godefroy et al., 2007; the entire contents of each of which is incorporated herein by reference), involving enrichment of IFNγ-secreting cells upon short-term culture and peptide stimulation to generate MMP-2 responsive clones. Briefly, CD4^+ T cells were stimulated by CD4^− cells irradiated and pulsed with peptides for 12 days in the presence of rhIL-2 and rhIL-7. CD4^+ T cells were then restimulated with peptides for 3 hours before capturing IFNγ-secreting specific cells using a bispecific antibody coating T cells and capturing produced IFNγ. Positive cells were purified magnetically before being cloned. Although MMP-2-specific cells could be isolated, it was realized that IFNγ secretion was marginal compared to their secretion of IL-4 and TNFα. IFNγ-secreting cells in response to MMP-2 peptide pool were enriched by cytokine-guided magnetic cell sorting (Miltenyi Biotec) as described above and cloned the following day by limiting dilution in the presence of irradiated allogeneic PBMCs, 1 μg/mL phytohemagglutinin-L (Sigma) and 150 UI/mL rhIL-2. Tumor infiltrating lymphocytes (TILs) were provided by Pr. F. Jotereau and B. Dréno. They were obtained from tumor-invaded lymph nodes of melanoma patients (stage Mb) and expanded ex vivo. These patients received autologous TILs and IL-2 infusions in a clinical trial (Labarriere et al., 2002). This protocol was approved by the Institutional Ethics Committee and registered with regulatory state authority in France (Nantes). […]

human basophils = experiment: Basophil activation by MMP-2 (IL-4, TSLP, CD203c); assay type: cell-based
[2] = test system: CD40, CD80, CD83, CD86, HLA-DR and CCR7 on DCs; experiment: Expression of maturation markers by DCs; assay type: cell-based, human
Protocol: Antibodies. Allophycocyanin-conjugated antibody to CCR-7 (150503) was purchased from R&D Systems. Unconjugated (10 μg/mL for blocking experiments) or phycoerythrin-conjugated antibody to OX40L (11C3.1) was from Biolegend. Blocking antibody to IL-4 (8F12; 10 μg/mL) was from Acris. Antibodies to human Vβ chains covering 70% of the repertoire (10Test Beta Mark; Beckman Coulter) were used according to the manufacturer's instructions. Fluorescein isothiocyanate-conjugated antibody to IL-12p35/IL-12p70 (B-T21) and IFNAR1 (EP899Y) were from Abcam. Phycoerythrine-conjugated antibodies to IL-12p40/IL-12p70 (C8.6), IL-10 (B-T10), CD203c (FR3-16A11) were from Miltenyi Biotec. Blocking antibody to HLA-DQ (SPVL3; 20 μg/mL) was from NeoMarkers. […]
Dendritic cell preparation and activation. […] Immature DCs were harvested on day 5 and matured using poly(I:C) at 5 μg/mL/10^6 DCs (Amersham) Secretion of IL-12p70, TNFα, IL-1β, IL-6, IL-8 and IL-10 was assessed on both immature and mature DCs using the Human Inflammatory Cytokine Cytometric Bead Array (BD Pharmingen).
We next evaluated whether DCs could be involved in the polarization of MMP-2-specific CD4^+ T cells.

[3] = DCs pre-incubated before poly(I:C) maturation

B1: active MMP-2: Purified human MMP-2 (mixture of the proenzyme (50%) and the active form (50%)) purchased from Biomol (protein, listed as Homo sapiens)
chain: MEALMARGALTGPLRALCLLGCLLSHAAAAPSPIIKFPGDVAPKTDKELAVQYLNTFYGCPKESCNLFVLKDTLKKMQKFFGLPQTGDLDQNTIETMRKPRCGNPDVANYNFFPRKPKWDKNQITYRIIGYTPDLDPETVDDAFARAFQVWSDVTPLRFSRIHDGEADIMINFGRWEHGDGYPFDGKDGLLAHAFAPGTGVGGDSHFDDDELWTLGEGQVVRVKYGNADGEYCKFPFLFNGKEYNSCTDTGRSDGFLWCSTTYNFEKDGKYGFCPHEALFTMGGNAEGQPCKFPFRFQGTSYDSCTTEGRTDGYRWCGTTEDYDRDKKYGFCPETAMSTVGGNSEGAPCVFPFTFLGNKYESCTSAGRSDGKMWCATTANYDDDRKWGFCPDQGYSLFLVAAHEFGHAMGLEHSQDPGALMAPIYTYTKNFRLSQDDIKGIQELYGASPDIDLGTGPTPTLGPVTPEICKQDIVFDGIAQIRGEIFFFKDRFIWRTVTPRDKPMGPLLVATFWPELPEKIDAVYEAPQEEKAVFFAGNEYWIYSASTLERGYPKPLTSLGLPPDVQRVDAAFNWSKNKKTYIFAGDKFWRYNEVKKKMDPGFPKLIADAWNAIPDNLDAVVDLQGGGHSYFFKGAYYLKLENQSLKSVKFGSIKSDWLGC
antigen-specific CD4+ T cells secreting IL-4, mean ([1]; 10 cord blood donors, 15 days): 2.50% | antigen-specific CD4+ T cells secreting IL-13, mean ([1]; 10 cord blood donors, 15 days): 0.08% | IL-4, mean of differences versus priming without MMP-2 [1, 3]: 1.85 | IL-13, mean of differences versus priming without MMP-2 [1, 3]: 0.07 | production of type-1 cytokines (IFNγ and IL-2) upon peptide re-stimulation ([1]; Melan-A/MART-1- and NY-ESO-1-specific primed CD4+ T cells): failed to produce | production of IL-4 by basophils (human basophils; MMP-2 0.5 and 5 μg/mL): neither induced | production of TSLP by basophils (human basophils; MMP-2 0.5 and 5 μg/mL, 16 h): neither induced | expression of basophil activation marker CD203c (human basophils; PBMCs, 6 h): did not increase | expression levels of maturation markers CD40, CD80, CD83, CD86, HLA-DR and CCR7 [2]: not significantly affected
